Data as given in publication PMC9718832, “An NKX-COUP-TFII morphogenetic code directs mucosal endothelial addressin expression” (Nature Communications, 2022).

How the values were obtained:
GST-tagged COUP-TFII = molecular target: T1, GST-tagged COUP-TFII (mouse, UniProt P43135 1-414); experiment: native gel or EMSA; NKX2-3 and COUP-TFII-GST co-incubated with labelled St6gal1 NCCE probe; complex seen on DNA; conditions: both partners purified
T1 construct: COUP transcription factor 2 (COUP-TFII, Nr2f2); Nr2f2 cDNA cloned into pGEX2TK; also called COUP-TFII-GST; source: E. coli BL21, purified
T1 sequence (looked up): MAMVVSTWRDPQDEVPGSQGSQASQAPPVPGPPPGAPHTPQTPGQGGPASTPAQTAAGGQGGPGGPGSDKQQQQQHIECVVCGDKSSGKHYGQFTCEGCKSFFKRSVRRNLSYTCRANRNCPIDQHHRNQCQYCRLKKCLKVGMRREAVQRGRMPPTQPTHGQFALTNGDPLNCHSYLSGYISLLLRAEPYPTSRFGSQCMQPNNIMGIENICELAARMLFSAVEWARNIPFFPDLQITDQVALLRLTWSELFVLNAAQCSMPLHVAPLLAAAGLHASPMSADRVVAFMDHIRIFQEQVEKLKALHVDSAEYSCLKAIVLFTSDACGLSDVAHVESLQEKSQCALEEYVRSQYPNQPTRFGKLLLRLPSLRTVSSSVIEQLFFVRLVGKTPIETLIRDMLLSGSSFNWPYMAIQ

[1] = molecular target: T2, COUP-TFII (recombinant, His- and T7-tagged) (mouse, UniProt P43135 1-414); experiment: native gel or EMSA; recombinant proteins co-incubated with labelled Madcam1 CE probes (native CE, CE_ΔC_A, CE_ΔN_ΔC_A); 4 °C, 20% glycerol, 20 mM Tris pH 8.0, 10 mM KCl, 1 mM DTT, poly dI/C, BSA; 6% gel; supershift with anti-NKX2-3; complex seen on DNA; conditions: both partners purified
T2 construct: COUP transcription factor 2 (COUP-TFII, Nr2f2), mouse; cDNA PCR-amplified from mouse cDNA as BamHI-EcoRI fragment and cloned into pET21-A; also called Nr2f2; NR2F2; source: E. coli BL21, purified
T2 sequence (looked up): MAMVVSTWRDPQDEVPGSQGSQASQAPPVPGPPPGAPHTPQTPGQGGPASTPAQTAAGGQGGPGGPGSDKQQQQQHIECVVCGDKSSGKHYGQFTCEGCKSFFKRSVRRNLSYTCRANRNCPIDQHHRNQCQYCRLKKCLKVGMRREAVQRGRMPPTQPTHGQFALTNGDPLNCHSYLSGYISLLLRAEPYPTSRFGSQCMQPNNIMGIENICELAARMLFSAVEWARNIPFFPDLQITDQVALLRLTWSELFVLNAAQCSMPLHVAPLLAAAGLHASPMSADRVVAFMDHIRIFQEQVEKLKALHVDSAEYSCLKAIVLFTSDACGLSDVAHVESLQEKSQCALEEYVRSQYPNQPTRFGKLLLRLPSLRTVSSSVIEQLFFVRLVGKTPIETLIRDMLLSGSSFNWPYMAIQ

NKX2-3;COUP-TFII [2] = molecular target: T3, NKX2-3;COUP-TFII (mouse;mouse, UniProt P97334;P43135 1-362;1-414, |); experiment: EMSA; EMSA: 20 mM Tris pH 8.0, 10 mM KCl, 1 mM DTT, 20% glycerol, 12.5 ng poly dI/C, 6.25 pmol random ss oligo, BSA, 1-2 pmol probe, 4 C; conditions: protein: recombinant;recombinant; tags: His, T7 (pET21A);His, T7 (pET21A); copies: 1;1; blunt
COUP-TFII [3] = molecular target: T4, COUP-TFII (mouse, UniProt P43135 1-414); experiment: EMSA; supershift; EMSA: 20 mM Tris pH 8.0, 10 mM KCl, 1 mM DTT, 20% glycerol, 12.5 ng poly dI/C, 6.25 pmol random ss oligo, BSA, 1-2 pmol probe, 4 C; conditions: protein: recombinant; tags: His, T7 (pET21A); chain copies: 2; blunt
T4 sequence: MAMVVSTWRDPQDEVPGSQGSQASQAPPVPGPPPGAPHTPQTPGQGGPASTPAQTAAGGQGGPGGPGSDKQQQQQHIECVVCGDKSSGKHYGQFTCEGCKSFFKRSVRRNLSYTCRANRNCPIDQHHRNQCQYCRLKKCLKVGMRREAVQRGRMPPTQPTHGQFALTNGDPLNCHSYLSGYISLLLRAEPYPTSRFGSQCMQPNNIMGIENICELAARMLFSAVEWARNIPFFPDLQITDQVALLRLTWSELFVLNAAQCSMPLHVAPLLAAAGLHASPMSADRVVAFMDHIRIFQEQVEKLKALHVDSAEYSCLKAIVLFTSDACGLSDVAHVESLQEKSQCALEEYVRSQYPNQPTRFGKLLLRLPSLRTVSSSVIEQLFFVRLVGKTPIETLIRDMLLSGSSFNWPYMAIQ

HEY1 [4] = molecular target: T5, HEY1 (mouse, UniProt Q9WV93 1-299); experiment: EMSA; supershift with anti-HEY1 (HRT1); EMSA: 20 mM Tris pH 8.0, 10 mM KCl, 1 mM DTT, 20% glycerol, 12.5 ng poly dI/C, 6.25 pmol random ss oligo, BSA, 1-2 pmol probe, 4 C; conditions: protein: recombinant; tags: His, T7 (pET21A); chain copies: 2; blunt
T5 sequence: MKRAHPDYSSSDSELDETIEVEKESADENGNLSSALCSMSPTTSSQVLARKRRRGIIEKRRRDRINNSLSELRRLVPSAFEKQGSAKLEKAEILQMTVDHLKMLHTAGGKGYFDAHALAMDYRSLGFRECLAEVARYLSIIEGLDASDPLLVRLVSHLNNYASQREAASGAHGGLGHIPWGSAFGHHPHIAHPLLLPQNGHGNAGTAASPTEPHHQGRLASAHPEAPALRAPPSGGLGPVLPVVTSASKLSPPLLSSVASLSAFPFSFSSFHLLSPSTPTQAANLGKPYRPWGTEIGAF

NKX2-3 [5] = molecular target: T6, NKX2-3 (mouse, UniProt P97334 1-362); experiment: EMSA; supershift; HEY1 dose-dependently inhibits (Fig S1B); EMSA: 20 mM Tris pH 8.0, 10 mM KCl, 1 mM DTT, 20% glycerol, 12.5 ng poly dI/C, 6.25 pmol random ss oligo, BSA, 1-2 pmol probe, 4 C; conditions: protein: recombinant; tags: His, T7 (pET21A); blunt
COUP-TFII [6] = molecular target: T4, COUP-TFII; experiment: EMSA; EMSA: 20 mM Tris pH 8.0, 10 mM KCl, 1 mM DTT, 20% glycerol, 12.5 ng poly dI/C, 6.25 pmol random ss oligo, BSA, 1-2 pmol probe, 4 C; conditions: protein: recombinant; tags: His, T7 (pET21A); chain copies: 2; blunt
NKX2-3 [7] = molecular target: T6, NKX2-3; experiment: as above; conditions: protein: recombinant; tags: His, T7 (pET21A); blunt
NKX2-3;COUP-TFII [8] = molecular target: T3, NKX2-3;COUP-TFII; experiment: EMSA; supershift with anti-NKX2-3; EMSA: 20 mM Tris pH 8.0, 10 mM KCl, 1 mM DTT, 20% glycerol, 12.5 ng poly dI/C, 6.25 pmol random ss oligo, BSA, 1-2 pmol probe, 4 C; conditions: protein: recombinant;recombinant, tags: His, T7 (pET21A);His, copies: 1;1, blunt
NKX2-3;COUP-TFII-GST = NKX2-3;COUP-TFII-GST (mouse;mouse, UniProt P97334;P43135 1-362;1-414, |); experiment: EMSA; EMSA: 20 mM Tris pH 8.0, 10 mM KCl, 1 mM DTT, 20% glycerol, 12.5 ng poly dI/C, 6.25 pmol random ss oligo, BSA, 1-2 pmol probe, 4 C; conditions: protein: recombinant;recombinant; tags: His, T7 (pET21A);GST (pGEX2TK); copies: 1;1; label: labeled; blunt
COUP-TFII-GST = molecular target: T7, COUP-TFII-GST (mouse, UniProt P43135 1-414); experiment: EMSA; inhibited by cold WT probe; EMSA: 20 mM Tris pH 8.0, 10 mM KCl, 1 mM DTT, 20% glycerol, 12.5 ng poly dI/C, 6.25 pmol random ss oligo, BSA, 1-2 pmol probe, 4 C; conditions: protein: recombinant; tags: GST (pGEX2TK); chain copies: 2; label: labeled; blunt
T7 sequence: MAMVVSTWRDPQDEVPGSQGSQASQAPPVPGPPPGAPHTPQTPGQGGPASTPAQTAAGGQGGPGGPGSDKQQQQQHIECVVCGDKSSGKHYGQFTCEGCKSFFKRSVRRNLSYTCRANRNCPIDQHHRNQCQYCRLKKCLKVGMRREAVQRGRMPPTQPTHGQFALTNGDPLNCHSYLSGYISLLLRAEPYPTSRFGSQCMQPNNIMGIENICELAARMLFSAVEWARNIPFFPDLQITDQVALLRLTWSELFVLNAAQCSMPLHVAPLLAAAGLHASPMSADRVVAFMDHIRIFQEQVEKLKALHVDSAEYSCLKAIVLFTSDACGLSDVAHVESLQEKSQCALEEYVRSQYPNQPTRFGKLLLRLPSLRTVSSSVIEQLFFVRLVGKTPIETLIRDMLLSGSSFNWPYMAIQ

NKX2-3 [9] = molecular target: T6, NKX2-3; experiment: as above; conditions: protein: recombinant; tags: His, T7 (pET21A); label: labeled; blunt
NKX2-5;COUP-TFII = NKX2-5;COUP-TFII (mouse;mouse, UniProt P42582;P43135 1-318;1-414, |); experiment: EMSA; COUP-TFII tag not stated; EMSA: 20 mM Tris pH 8.0, 10 mM KCl, 1 mM DTT, 20% glycerol, 12.5 ng poly dI/C, 6.25 pmol random ss oligo, BSA, 1-2 pmol probe, 4 C; conditions: protein: recombinant;recombinant, tags: His, T7 (pET21A);His, copies: 1;1, blunt
HEY1 [10] = molecular target: T5, HEY1; experiment: EMSA; EMSA: 20 mM Tris pH 8.0, 10 mM KCl, 1 mM DTT, 20% glycerol, 12.5 ng poly dI/C, 6.25 pmol random ss oligo, BSA, 1-2 pmol probe, 4 C; conditions: protein: recombinant; tags: His, T7 (pET21A); chain copies: 2; blunt
NKX2-3;COUP-TFII [11] = molecular target: T3, NKX2-3;COUP-TFII; experiment: EMSA; band stronger than on WT CE; supershift with anti-NKX2-3; EMSA: 20 mM Tris pH 8.0, 10 mM KCl, 1 mM DTT, 20% glycerol, 12.5 ng poly dI/C, 6.25 pmol random ss oligo, BSA, 1-2 pmol probe, 4 C; conditions: protein: recombinant;recombinant, tags: His, T7 (pET21A);His, copies: 1;1, blunt

Sequence of NKX2-5;COUP-TFII (P42582 whole entry, one chain of several): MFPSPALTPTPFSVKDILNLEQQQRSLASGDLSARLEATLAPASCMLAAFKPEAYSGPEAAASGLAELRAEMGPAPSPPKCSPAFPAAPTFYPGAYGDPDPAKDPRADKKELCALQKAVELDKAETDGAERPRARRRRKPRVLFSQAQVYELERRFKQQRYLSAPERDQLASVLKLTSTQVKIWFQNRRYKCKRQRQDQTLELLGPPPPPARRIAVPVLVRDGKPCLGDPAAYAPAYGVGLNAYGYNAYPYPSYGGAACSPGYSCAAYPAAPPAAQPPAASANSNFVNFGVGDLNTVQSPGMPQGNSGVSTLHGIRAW

B1: NKX2-3 (recombinant, His- and T7-tagged) (natural protein, mouse, UniProt P97334 1-362, looked up)
chain: MMLPSPVTSTPFSVKDILNLEQQRHFHGAHLQAELEQHFHSAPCMLATAEGTQFSDAGEEDEEEEGEKLSYLNSLAAAEGHGDSGLCPQSYVHTVLRDACSGPKEQEEEVVSERSQKSCQLKKSLEAAGDCKTSEDGERPKPRSRRKPRVLFSQAQVFELERRFKQQRYLSAPEREHLASSLKLTSTQVKIWFQNRRYKCKRQRQDKSLELGTHAPPPPPRRVAVPVLVRDGKPCVTPSAQTYGSPYGVGAGAYSYNSFPAYGYGNSAAAAAAAAAAAAAAAAYSGSYGCAYPTGGGGGGGGTASAATTAMQPACSATGGGSFVNVSNLGGFGSGGGAQPLHQGAAAGSACTQGTLQGIRAW
notes: Homeobox protein NKX2-3, mouse; cDNA PCR-amplified from mouse cDNA as EcoRI-HindIII fragment and cloned into pET21-A; also called intestinal homeodomain protein NKX2-3; source: E. coli BL21, purified
binding result (GST-tagged COUP-TFII): binds | binding result [1]: binds

B2: Madcam1 CE WT (dsDNA)
DNA 1: CCATGCACTTGACCCACCATGGTGACCCACCTCC
DNA 2: GGAGGTGGGTCACCATGGTGGGTCAAGTGCATGG
binding result (NKX2-3;COUP-TFII [2]): binds | binding result (COUP-TFII [3]): binds | binding result (HEY1 [4]): binds | binding result (NKX2-3 [5]): binds

B3: Madcam1 CE_deltaN_deltaC_A (dsDNA)
DNA 1: CCATGGTCTTGAAAAAAAATGGTGACCCACCTCC
DNA 2: GGAGGTGGGTCACCATTTTTTTTCAAGACCATGG
binding result (COUP-TFII [6]): binds | binding result (NKX2-3 [7]): no binding | binding result (NKX2-3;COUP-TFII [8]): binds

B4: St6gal1 CE WT (dsDNA)
DNA 1: GAGGCTGGTCAGAGAAGTGTGAAAAG
DNA 2: CTTTTCACACTTCTCTGACCAGCCTC
binding result (NKX2-3;COUP-TFII-GST): binds | binding result (COUP-TFII-GST): binds | binding result (NKX2-3 [9]): binds

B5: Tbx5 NCCE (dsDNA)
DNA 1: CCGCTGACCCGACCCTTAATAAGGCA
DNA 2: TGCCTTATTAAGGGTCGGGTCAGCGG
binding result (NKX2-5;COUP-TFII): binds

B6: Etv2 NCCE (dsDNA)
DNA 1: CCTGCAACTTGACCCAGGCTGCGACCCCCAGC
DNA 2: GCTGGGGGTCGCAGCCTGGGTCAAGTTGCAGG
binding result (NKX2-5;COUP-TFII): binds

B7: Madcam1 CE_deltaE/N (m1) (dsDNA)
DNA 1: CCATGGTCTTGACCCACCATGGTGACCCACCTCC
DNA 2: GGAGGTGGGTCACCATGGTGGGTCAAGACCATGG
binding result (HEY1 [10]): no binding | binding result (NKX2-3 [7]): no binding

B8: Madcam1 CE_deltaC_A (dsDNA)
DNA 1: CCATGCACTTGAAAAAAAATGGTGACCCACCTCC
DNA 2: GGAGGTGGGTCACCATTTTTTTTCAAGTGCATGG
binding result (NKX2-3;COUP-TFII [11]): binds
